# In the DeepSol protein solubility set:
# Assay: soluble on expression in E. coli; label from the status in PepcDB or PDB records
row,Sequence,soluble on expression in E. coli
1,MISHCRRLLATTTALVIASTAIAAAEPSAELIAAAKKEGMLTTVALPHDWCGYGDVIAAFKAKYPEITVNELNPDAGSADEVEAVKANKDNKGPQAPDVVDVGLAFGPQMKAEGLLQPYKVSTWAEIPDNVKDADGYWYGDYYGVMSMFVNKDLVKNVPKDWADLLKPEYSGQVALAGDPRASNQAILGVLAAGLSTGAKSGKEAGEAGLKYFADLNKAGNFLPVIGKAGTLAQGATPIIVAWDYNALSWKKTLNDNPPTEVVVPEKGVLAGVYVQGISAYAPHPNAAKLWMEHLYSDDGQLGWLKGYCHPIRFNAMVKAGKVPQELIDSLPPAAAYEKAIFPTLEEVDANKAAVTGGWDKVVGANVK,not soluble
2,MSKIIGSDRVKRGMAEMQKGGVIMDVVNAEQARIAEEAGAVAVMALERVPSDIRAAGGVARMANPKIVEEVMNAVSIPVMAKARIGHITEARVLEAMGVDYIDESEVLTPADEEYHLRKDQFTVPFVCGCRNLGEAARRIGEGAAMLRTKGEPGTGNIVEAVRHMRQVNSEVSRLTVMNDDEIMTFAKDIGAPYEILKQIKDNGRLPVVNFAAGGVATPQDAALMMELGADGVFVGSGIFKSEDPEKFAKAIVQATTHYQDYELIGRLASELGTAMKGLDINQLSLEERMQERGWMAGDPLEHHHHHH,not soluble
3,MENGHLAKVDLTKKIESKSKYNKKLEKYQRRLLALQQILKEEKIAVMLVMEGWDAAGKGGAIKRVTEHLDPRGFQVDPIGAPAPHEKRYHYLQRFWRKIPQYGQITIFDRSWYGRVLVERVEGFATKEEWMRAYDEINDFEKLLTDDHYIIGKFFYHISKEEQLKRFKDREKNPLKRWKITDEDWRNREKWDEYVEAMEDMFEKTSKPNAKWHIIESNDKLYARVKTLKIIISFIEDYFLEHGIELPSYYYEMKEDIEVLQDVGVKE,not soluble
4,MTLPKIGKPATRALNSQGIYTLEAVSQYTKSSLMEMHGVGPKAISILEQALFQHQLHFKTEVQSSLPFKLTGDVSCNHAPKRQQMIDFIVATAALDIELLRSLVTTEFIWSVPGHFDIYGPQILIQELSNYYNQVASLNIHSNITHGCLGSMHGIEILKTGKEIHFAHFFEFENHKKDAKLSKVTSYIVVA,not soluble
5,MRTNVRLLAYRLLRKYEKEKFISREDVDSVLSFLDDRDRRFFKELVWGVVRKEELLDWYINQLLKKKDIPPAVRVALRMGAYQLLFMNSVPDYAAVSETVKLVKNENFKKLVNAVLRRLRTVPEPKELHLVYSHPEWIVNYWRSFLPEEAVLRIMKWNQEPLPVMLRVNSLAATKEEVIKILAEEGTEAVPGKHAPFSLIVRKLGVPMNDSRVINDGLASVQGESSQLVPFFMELRPGLRVLDTCAAPGGKTTAIAELMKDQGKILAVDISREKIQLVEKHAKRLKLSSIETKIADAERLTEYVQDTFDRVLVDAPCTSLGTARNHPEVLRRVNKEDFEKFSEIQLRMVQQAWQLLEKGGILLYSTCTVTKEENTEVVKRFVYEQKDVEVIDIRDKMKEFEVEGIWDGYGFLMLPDETITPFYISVLRKMG,soluble
6,MRDVHSISAMNLRDVLSIPEVKQGQVIGKKIPATLGEDGMNVLGEPIKAKPGREFVLRPGKNSTVDEANGTLVAAVDGQMSVDKRTIHVYPVYEVPGDLTMKHGNISFIGNVIIRGHVPDGFVVKAGGDIRVFGTVEGATLEAGGSIFVGAGIVGQNRGCIRAEGGLHTTFINQAKVEVGGDIEVVQSILHSTCTAGGKIICTRGKGNIVGGALSAEDHIYAKEIGNSMHTKTSLYIGAKEKWVTKEKQLAKEYKTTEEELKKLSLLLQKFQELEKENGLTANGRVQRLRVKNTLVQVKEKHEQIKEQLEDVQENLTLNQAGSIVVEQTLYPNVSAHFGKYRRKIVSNHSNVKLSLVDQEIQLSSRLEHHHHHH,not soluble
7,MGSDKIHHHHHHMNDYLDDYEFNNLDFYRKNHGLQLYYNWSGEICWQETPDKPQEKLFSIIGMNATKVFLKPDPEHGEVGYRINRELGLFCDPDTQEILHSWKSPTASQPVPVVHIANRIVQGSVKPKKFVIPKGKGYITSVMEIPLEYPHPLAGDSKYLDYCPGEKFKGVEYFISNTCRPDATEVPPAKWARDCPWMPWMKLGYAHPAKLRFETTIFRVDSFEQLHPSLVNLVREKVPIYEFTPTESDEPNVTSIQYFKKNFESYLRGDIFPLEERY,not soluble
8,MGSDKIHHHHHHMKLVDSIYGTYTVEPVISELIDSAPVQRLKGIHQGGACYIVKPSWNVTRFEHSIGVMLLIRKLGGSLEEQIAGLLHDVSHTAFSHVIDYVLAEEEEDYHEQIYEQVIRASEIPHILDKYGFDLERIVLNHSCWTLLEQPSPSLCADRIDYTLRDLYTYGHINKQEVDDFIANLIVVDGIISTSSVAGAEWFVRAYYKEVIDFFLDPLNVYGSSVLTSVLKSAVERKALGLDDFLKTDEELMEQLQRLNDDSIQKQLATLHPHVNVRENENHYHIHKTNKLRLIDPHVYLDGTFQRISSLSKQVKKWNEEAQRRADRGAYVEVLSS,not soluble
9,SKIKDAKKPSFPWFGMDIGGTLVKLSYFEPIDITAEEEQEEVESLKSIRKYLTSNVAYGSTGIRDVHLELKDLTLFGRRGNLHFIRFPTQDLPTFIQMGRDKNFSTLQTVLCATGGGAYKFEKDFRTIGNLHLHKLDELDCLVKGLLYIDSVSFNGQAECYYFANASEPERCQKMPFNLDDPYPLLVVNIGSGVSILAVHSKDNYKRVTGTSLGGGTFLGLCSLLTGCESFEEALEMASKGDSTQADKLVRDIYGGDYERFGLPGWAVASSFGNMIYKEKRESVSKEDLARATLVTITNNIGSVARMCAVNEKINRVVFVGNFLRVNTLSMKLLAYALDYWSKGQLKALFLEHEGYFGAVGALLGLPNFS,soluble
10,LSAPDSITVTVADHNGVAVLSIGGEIDLITAAALEEAIGEVVADNPTALVIDLSAVEFLGSVGLKILAATSEKIGQSVKFGVVARGSVTRRPIHLMGLDKTFRLFSTLHDALTGVRGGRIDR,soluble
11,GSHMVNIIQKFIPVGANNRPGYAMKPKYITVHNTANTAVGADAAAHARYLKNPDTTTSWHFTVDDKEIYQHLPLNENGWHAGDGNGSGNRASIGIEICENADGDFAKATANAQWLIKTLMAEHNISLANVVPHKYWSGKECPRKLLDKWDSFKAGIG,soluble
12,MAFLPLYIPKGRRLKIVIVGGGYAGIAALVTLHRYSPDAEITLIDPGIDHLKITHLHETFRYPLSDFLVPYAFLEQRFGCRHIRSALAVDESMLCQWQRDRYLQVDDQQVPFDYLLVASGARSFTRNETDERTAADAENIVRLENFFTVSGADLLDRFLATQDRAGNTAPSCISVVGGGATGIQFLFELAGYLRRRRINHGLQLVDDNERVLQRYPGGFARYVEMRMLELDIEFYPGVCFLEQRADTVLLEDKTSGRHFELPSVLSLVFTGNRQDNLIKTNAFGQVMVDGKPLGNIFAAGDCSVYPSLGSNTMTAQSAVRKGKLAARNILRHSGVLKVLEPYLHHDLGYVVSLGPEDAVGWLAVENNVVTGVPALAIKEIVEAQYDLLLSGVDTYLVLEHHHHHH,not soluble
13,MINMTRKLYYEDAYLKEAKGRVLEIRDNAILLDQTIFYPTGGGQPHDRGTINGVEVLDVYKDEEGNVWHVVKEPEKFKVGDEVELKIDWDYRYKLMRIHTGLHLLEHVLNEVLGEGNWQLVGSGMSVEKGRYDIAYPENLNKYKEQIISLFNKYVDEGGEVKIWWEGDRRYTQIRDFEVIPCGGTHVKDIKEIGHIKKLKRSSIGRGKQRLEMWLE,soluble
14,QRGIINQRRERLVAADLMGAATVTASTVKYIVEKANRIASGAPATVAEGTKKPYVKYADFDVVTESLSKVAALAKFTDEMIEDYDFVASWINNNLVYDLSVVEEKQLINGDGRGSNIKGLLNREGIQTHKSAKQADWFNDLFKAKNKVSQATNLEADGIMINPVNYEALRLTKDGNGQYIAGGPFQGQYGNGNILIDPPLWGIKTVVSNAVPAGTAIVGAFRQGATVLRKGGVRVDSANTNADDFENNLVTLRAEERLGLMVPLPAAFVKVTLEETTEEL,not soluble
15,SENDSIELDDVANLMFYGEGQIGTNKQPFMFIFDTGSANLWVPSVNCDSIGCSTKHLYDASASKSYEKDGTKVEISYGSGTVRGYFSKDVISLGDLSLPYKFIEVTDADDLEPIYSGSEFDGILGLGWKDLSIGSIDPVVVELKKQNKIDNALFTFYLPVHDKHVGYLTIGGIESDFYEGPLTYEKLNHDLYWQIDLDIHFGKYVMQKANAVVDSGTSTITAPTSFLNKFFRDMNVIKVPFLPLYVTTCDNDDLPTLEFHSRNNKYTLEPEFYMDPLSDIDPALCMLYILPVDIDDNTFILGDPFMRKYFTVFDYEKESVGFAVAKNL,soluble
16,MGSDKIHHHHHHLSSPMRLSFLAAAFAAPLVVSASGAGAAEPTRYPLTLQTCGQTITFDRAPSRVVSIGQSSTEILYLLGLADKVVGTALWVGPVIAGYEAVDAKVPRLADNDPSFESVVGKKPDLVTNQYQWQVGPKGVVATNAQFAELKIPVYTSPADCVGKDNSEGGDGLRTSRFTTDLIYQEIEDLARIFDVSERGEVLINDLKAREAAAKKKIASLRSPVSAVFWFSSADLDIDPYVAGSDGAPGYILSVLGITNVIKSEEEWPTVGWETIAKANPTIIVAGEMTRRRFPVDDIAVKKTFLANDPVTRLMPAVQEGRIVPLDAQAMNPTIRTIEGIEVVADAVIKAGLAQ,not soluble
17,MGSDKIHHHHHHMSNRLSVVMIAKNAADLLPDCLGSVSWADEIIVLDSGSTDNTVELARRLGAQVYTHTDWRGYGIQRQRAQDYATGDWVLMIDTDERVTPELRQAILKVLDAPQRGAIYSIARRNYFLGRFMRHSGWYPDRVLRLYERARYRYNDNLVHESLDSLGAEVIPLTGDLLHLTCRDFAGFQQKQLAYAAAWALERHQKGKKTSMAGIFSHTLGAFLKTLLLRGGVLDGKQGWLLAMVNAQYTFTKYTELWALSHGYSEKESS,not soluble
18,VAWFTDEEGGRGRIEAGQLADLVVPDKDFFSCPEDDISFLVSELTMVGGRIVYAAGGFAALDDNPLPPAMPDWSPARTFKGYAAWGDPDGAGRHSLQRRAVAACGCANACGLHGHQHARAWGTALPVSDAKGFFGALGCSCWA,not soluble
19,RMNVFDEHHFRVILDYAHNADGVRCMSELASKLEVKGKRITVLAGPGDRRDEDIVNIAKAAAGHFDIYICKADDNRRGRGVNEVPELLASSLRAEGIDESQIYCISDEVEAINKGLELANTDDLLMIFGDAITRCWKQIINFNSGHEPEQE,not soluble
20,MEQFRNIGIIGRLGSVQVLDTVRRLKRFLLDRHLHVILEETIAEVLPGHGLQTSSRKMLGEVCDMVIVVGGDGSLLGAARALARHNVPVLGINRGSLGFLTDIRPDELEVKCAEVLDGHYLVENRFLLQAEVRRHGEAIGQGDALNDVVLHPGKSTRMIEFEIYIDGQFVCSQKADGLIVATPTGSTAYALSAGGPIMHPKLDAIVIVPMYPHTLSGRPIVVDGNSELKIVVSKDMTIYPQVSCDGQNHFTCAPGDTITVSKKPQKLRLIHPLDHNYYEVCRTKLGWGSRLGGGGDLEHHHHHH,soluble
21,MGSDKIHHHHHHMIHVGTCGFCEAREKYFKDFDAVEVQQTFYKVLQEKTLERWRKKAPEEFTFSIKAFQGVTHPSNSPTWRRSNVKPSKNVGLLRPTNEVLHYWRITLKEAKVLGARFILIQLPRSFKEGEESFENAEKFFNAIDRGDFEIGVELRGWSEKGVKRFVREFDVIDVTDPLLRIPLHKGSVNYYRLHGKYEGGKIIYNHSYSDEELKKIRERVLGWNVEESFVFFNNTSMCRDAKRFKLILDLH,not soluble
22,MSLTDIHPPLLLIDTSTRVCSVAVAAAGTIISQRVSHVGNSHAANIGVFVQEVLTEAIGLGVKPSIVALSSGPGSYTGLRIGSSIAKGICFGLGIPLVSVPTLELIAEAARPLSQPDWLICPMIDARRMEVYTALFDSKGKALTDTLPLVIDNDSFSEELKKRNILFVGDGAEKCRPFLSHPNAHFSKNVIYPLALYMLHPALSRIETSSYEDVAYWEPFYLKEFVATVAKNKVIPRTQTTEGHHHHHH,not soluble
